Data set [1] has as its target NF-kB p65 (Rel A) homodimer (UniProt Q04206). The note with it: 1:1 stoichiometry.
Data set [2] addresses NF-kB p50 homodimer (UniProt P19838). The following applies: also captured on SELDI array; lost on more stringent wash.

Results on one substance are retold here after patent US20110212843.

Chain of NF-kB p50 homodimer (P19838 1-433): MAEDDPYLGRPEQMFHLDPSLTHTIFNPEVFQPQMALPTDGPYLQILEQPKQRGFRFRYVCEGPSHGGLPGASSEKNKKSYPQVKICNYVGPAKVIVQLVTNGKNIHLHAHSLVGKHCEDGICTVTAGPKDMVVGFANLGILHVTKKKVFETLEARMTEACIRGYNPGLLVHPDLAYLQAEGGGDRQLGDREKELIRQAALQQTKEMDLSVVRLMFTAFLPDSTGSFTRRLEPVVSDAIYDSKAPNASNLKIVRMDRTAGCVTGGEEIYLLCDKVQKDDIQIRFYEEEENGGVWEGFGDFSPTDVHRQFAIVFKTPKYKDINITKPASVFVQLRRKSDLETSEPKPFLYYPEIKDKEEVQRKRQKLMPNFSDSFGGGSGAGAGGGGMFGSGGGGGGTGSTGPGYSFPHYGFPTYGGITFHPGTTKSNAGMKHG
Chain of NF-kB p65 (Rel A) homodimer (Q04206 whole entry): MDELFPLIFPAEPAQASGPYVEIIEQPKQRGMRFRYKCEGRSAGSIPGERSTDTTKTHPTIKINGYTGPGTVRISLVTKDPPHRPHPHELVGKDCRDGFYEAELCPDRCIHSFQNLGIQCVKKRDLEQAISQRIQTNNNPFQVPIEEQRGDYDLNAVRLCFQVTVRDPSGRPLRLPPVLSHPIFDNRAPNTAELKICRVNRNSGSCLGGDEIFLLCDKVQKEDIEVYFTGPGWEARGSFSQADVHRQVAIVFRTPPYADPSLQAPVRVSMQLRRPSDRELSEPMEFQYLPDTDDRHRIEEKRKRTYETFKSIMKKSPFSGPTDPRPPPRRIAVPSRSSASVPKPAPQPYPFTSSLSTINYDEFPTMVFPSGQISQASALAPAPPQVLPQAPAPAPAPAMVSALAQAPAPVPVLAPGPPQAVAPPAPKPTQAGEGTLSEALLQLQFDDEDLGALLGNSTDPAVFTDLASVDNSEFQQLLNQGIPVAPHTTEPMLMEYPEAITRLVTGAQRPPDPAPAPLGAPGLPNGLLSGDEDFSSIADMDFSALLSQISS

The term Kd denotes the equilibrium constant for the complex coming apart. Read a low Kd as higher affinity. With “IgkB 22-mer duplex (NF-kB promoter element)”, the Kd in data set [1] and in data set [2] was 4 nM in each case.
